Assays:
[1] = system: thymocyte; experiment: thymocyte proliferation as a measure of IL-1 activity; format: cell-based; conditions: phosphocellulose fractions
Description: Mononuclear cells obtained from donor blood buffy coats as described in Example 1 are cultured in MEM-PPL for 48 h in the presence of 100 ng/ml LPS in stirred culture bottles (1.5 liter, 5×10^6 cells/ml). The culture supernatants are then collected, centrifuged at 20000 rpm for 20 min. at 4° to remove particulate material, and loaded onto a 10 ml phosphocellulose column (Whatman P11, 1,4×6 cm) equilibrated with 20 mM potassium phosphate buffer, pH 7.2 containing 20 mM NaCl and 5% glycerol. The column is washed with 30 ml of the above buffer and then eluted with 90 ml of a linear NaCl concentration gradient (0.02 M to 1.5 M) in the same buffer. Fractions of 2 ml are collected in 0.1% polyethylene glycol and tested for NAF and IL-1 activity. Absorbance at 280 nm is monitored continuously as a measure of protein.
Most of the protein as well as the IL-1 activity are recovered in the flow-through volume. Elution with a linear NaCl gradient yields some IL-1 activity at low ionic strength followed by a peak of elastase-releasing activity corresponding to NAF, which starts to elute at 0.5 M and reaches its maximum at 0.8 M NaCl. The peak is symmetric and is preceded by a small shoulder.

[2] = resistance of NAF activity to heat, pH, denaturing agents and proteases; format: physicochemical
Description: Partially purified NAF obtained upon phosphocellulose chromatography (Example 4) is used in these experiments. Following phosphocellulose chromatography, fractions with the highest NAF activity are dialysed overnight at 4° against PBS using a membrane with a molecular weight cut-off of 1000 daltons. The preparation obtained is then subjected to the following treatments: a) incubation at 37° with and without trypsin, chymotrypsin or proteinase K (100 μg/ml) followed by the addition of an excess of BSA (2 mg/ml) to stop NAF proteolysis; b) heating to 56°, 80° or 95° (as compared to 22° for control); c) exposure to pH 2 or 10 (at 22°) followed by adjustment to pH 7.4 (as compared to pH 7.4 for control); d) exposure to 2 M lithium chloride, 6 M guanidinium chloride, 1% 2-mercaptoethanol or 0.5% sodium dodecyl sulfate (SDS) for 3 h at 22°, followed by dialysis for 24 h at 4° against PBS. When additions are made, samples without NAF are handled in the same way and tested for possible influence on the NAF assay.

[3] = exposure to fresh human serum, then activity (superoxide production); format: in vitro ADME; conditions: 15 minutes with fresh human serum
Description: C5A and NAF are incubated for 15 minutes with fresh human serum or with PBS and the activity of the preparations is determined (superoxide production).
Since C5a and NAF have similar effects on neutrophils, further experiments must be performed to discriminate entirely between the two. Samples of NAF and C5a are exposed to fresh human serum.

[4] = isoelectric point (chromatofocusing); format: physicochemical
Description: A sample of 4 ml of NAF partially purified by phosphocellulose chromatography (Example 4) is dialyzed against start buffer consisting of 25 mM ethanolamine-HCl, pH 9.4 and 0.1% polyethylene glycol 6000, and loaded onto a PBE 94 column (0.7×19 cm, Pharmacia) equilibrated with the same buffer. The column is then eluted with 200 ml of polybuffer 96-HCl (diluted 1:10 with water), pH 7.0, containing 0.1% polyethylene glycol 6000. 10-minute fractions are collected at a flow rate of 10-14 ml/h and assayed for NAF activity. Most of the activity elutes in the region of pH 8.5 to pH 8.8 (FIG. 9).

[5] = system: Rabbit neutrophils; experiment: NAF-induced exocytosis in rabbit neutrophils (N-acetyl-β-glucosaminidase release); format: cell-based; conditions: 15 min, cytochalasin B pretreated, purified natural NAF
Description: Rabbit neutrophils are isolated from peripheral blood (obtained from the ear vein or artery) by dextran sedimentation followed by Hypaque-Ficoll density gradient centrifugation. Purified natural NAF is used.
Exocytosis conditions: 0.6×10^6 cells (in a total volume of 0.15 ml) pretreated with cytochalasin B for 5 min at 37° are stimulated with NAF (0.1-100 nM) or fMLP (100 nM) for 15 min. N-acetyl-β-glucosaminidase, an azurophil granule marker, is determined in the cell-free medium.

[6] = system: mouse, rat and guinea pig; experiment: preliminary tests of NAF activity in mouse, rat and guinea pig
Excerpt: The biological properties of NAF are species-specific. Activity in the rabbit most closely mirrors activity in humans.

[7] = system: neutrophils; experiment: sequential/repeated stimulation of neutrophils (desensitization, superoxide formation); format: cell-based, human
Description: a) Neutrophils (3×10^6 /ml) are preincubated at 37° C. for 5 min. and then stimulated with different agonists as indicated (arrows).
b) Sequential or repeated stimulation with NAF and C5a. Conditions as in a).
Arrows show addition of agonists as indicated. The concentration of C5a is 0.5 nM in a) and 0.2 nM in b), that of fMLP is 20 nM in both experiments. The agonists are added in 50 μl of PBS-BSA.
On the other hand, when agonists acting on different receptors are used in sequence.(e.g. fMLP followed by C5a) these stimulations yield a normal response. Experiments of this type are therefore used to find out whether NAF acts by its own receptor or via a receptor also used by other agonists.

With neutrophil-activating factor [NAF] as the substance, how does the “thymocyte proliferation-inducing activity (IL-1 activity)” value [1] read?
Its value is “no thymocyte proliferation-inducing activity”.

What about the Relative activity ([2]; 2-mercaptoethanol 1.0%, 22°, 3 h) of the same substance?
The Relative activity was 30.

And the Relative activity ([2]; SDS 0.5%, 22°, 3 h)?
The Relative activity was 100.

And the Relative activity ([2]; Temperature 22°, 3 h (control))?
Its Relative activity is 100.

And the Relative activity ([2]; Temperature 56°, 1 h)?
Its Relative activity is 82.

And the Relative activity ([2]; Temperature 80°, 15 min)?
Its Relative activity is 80.

What about the Relative activity ([2]; Temperature 95°, 5 min) of the same substance?
Its Relative activity is 66.

What about the Relative activity ([2]; guanidinium chloride 6M, 22°, 3 h) of the same substance?
The Relative activity was 68.

What about the Relative activity ([2]; lithium chloride 2M, 22°, 3 h) of the same substance?
Its Relative activity is 52.

What about the Relative activity ([2]; pH 2.0, 22°, 3 h) of the same substance?
Its Relative activity is 76.

And the Relative activity ([2]; pH 10.0, 22°, 3 h)?
Its Relative activity is 90.

And the Relative activity ([2]; proteinase K 100 μg/ml, 37°, 12 h)?
The Relative activity was 0.

What about the Relative activity ([2]; trypsin 100 μg/ml, 37°, 4 h) of the same substance?
The Relative activity was 100.

And the Relative activity ([2]; trypsin 100 μg/ml, 37°, 12 h)?
Its Relative activity is 8.

What about the Relative activity ([2]; α-chymotrypsin 100 μg/ml, 37°, 4 h) of the same substance?
Its Relative activity is 80.

And the Relative activity ([2]; α-chymotrypsin 100 μg/ml, 37°, 12 h)?
Its Relative activity is 1.

And the “effect of serum treatment on activity” value [3]?
The value was “does not affect”.

What about the isoelectric point [4] of the same substance?
Its isoelectric point is “approximately 8.6”.

What about the N-acetyl-β-glucosaminidase ([5]; stimulus 0.1 nM) of the same substance?
The N-acetyl-β-glucosaminidase was 53 pmol/min.

And the N-acetyl-β-glucosaminidase ([5]; stimulus 1.0 nM)?
The N-acetyl-β-glucosaminidase was 99 pmol/min.

And the N-acetyl-β-glucosaminidase ([5]; stimulus 10.0 nM)?
Its N-acetyl-β-glucosaminidase is 139 pmol/min.

And the N-acetyl-β-glucosaminidase ([5]; stimulus 100.0 nM)?
The N-acetyl-β-glucosaminidase was 157 pmol/min.

And the “activity in the mouse, rat and guinea pig” value [6]?
The value was “not shown any clear activity”.

What about the “cross-desensitization in combinations of NAF with PAF, fMLP and leukotriene B4” value [7] of the same substance?
Its value is “fail to show cross-desensitization”.

What about the “cross-desensitization between NAF and C5a” value ([7]; superoxide formation) of the same substance?
Its value is “no cross-desensitization”.

What about the “desensitization to a second stimulation with the same agonist” value ([7]; superoxide formation) of the same substance?
Its value is “complete desensitization”.
